Reference: paper PMC11234460, “In Silico Discovery of Stapled Peptide Inhibitor Targeting the Nur77‐PPARγ Interaction and Its Anti‐Breast‐Cancer Efficacy” (Advanced Science, 2024)
Bridges are numbered along the chain shown (N, C = ends). Where no end group is shown, it is not given here. [ ]: non-standard residue; d: D form. S5 = C=CCCC[C@](C)(N)C(=O)O

B1: CY14 (CL14 with Leu169 mutated to Tyr) (peptide, UniProt P37231 156-169, looked up)
peptide: CEGCKGFFRRTIRY-NH2
modifications: cysteine pairing not given here
notes: PPARγ, residues Cys156-Leu169, with Leu169 mutated to Tyr; source: synthetic peptide (Fmoc SPPS on Rink Amide MBHA resin)
B2: CF14 (CL14 with Leu169 mutated to Phe) (peptide, UniProt P37231 156-169, looked up)
peptide: CEGCKGFFRRTIRF
notes: PPARγ, residues Cys156-Leu169, with Leu169 mutated to Phe; source: synthetic peptide (Fmoc SPPS on Rink Amide MBHA resin)
B3: CH14 (CL14 with Leu169 mutated to His) (peptide, UniProt P37231 156-169, looked up)
peptide: CEGCKGFFRRTIRH
notes: PPARγ, residues Cys156-Leu169, with Leu169 mutated to His; source: synthetic peptide (Fmoc SPPS on Rink Amide MBHA resin)
B4: CL14, α-helix of PPARγ (residues Cys156-Leu169) (peptide, UniProt P37231 156-169, looked up)
peptide: CEGCKGFFRRTIRL-NH2
modifications: cysteine pairing not given here
notes: PPARγ, residues Cys156-Leu169 of the DBD; Made on Rink amide resin, so probably a C-terminal amide; source: synthetic peptide (Fmoc SPPS on Rink Amide MBHA resin)
B5: CW14 (CL14 with Leu169 mutated to Trp) (peptide, UniProt P37231 156-169, looked up)
peptide: CEGCKGFFRRTIRW
notes: PPARγ, residues Cys156-Leu169, with Leu169 mutated to Trp; source: synthetic peptide (Fmoc SPPS on Rink Amide MBHA resin)
B6: SV16, α-helix of PPARγ (residues Ser186-Val201) (peptide, UniProt P37231 186-201, looked up)
peptide: SRNKCQYCRFQKCLAV-NH2
modifications: cysteine pairing not given here
notes: PPARγ, residues Ser186-Val201 of the DBD; Made on Rink amide resin, so probably a C-terminal amide; source: synthetic peptide (Fmoc SPPS on Rink Amide MBHA resin)

Key:
[1] = molecular target: T1, LBD fragment of human Nur77 (residues 351–598) (human, UniProt P22736 351-598); assay: MST; purified Nur77 LBD labelled with fluorescent dye; peptides 0.1-100 × 10^-6 M; PBST (0.05% Tween-20); 20 min at room temperature; Dianthus (NanoTemper); conditions: both partners purified
T1 construct: Labelled with a fluorescent dye for MST; amine-coupled to the chip for SPR; also called Nur77 LBD; Nur77-LBD; source: E. coli BL21(DE3), purified (Ni-NTA, Superdex 200 gel filtration)

[2] = molecular target: T1, LBD fragment of human Nur77 (residues …); assay: MST; conditions: both partners purified
[3] = molecular target: T1, LBD fragment of human Nur77 (residues …); assay: SPR; conditions: both partners purified
[4] = molecular target: T2, SmallBit-Nur77 (luciferase SmallBit fusion of Nur77) (UniProt P22736 1-598); assay: split reporter (BiFC, NanoBiT); conditions: one partner purified
T2 construct: Nur77; source: HEK293T, transiently transfected, in living cells
T2 sequence (P22736 whole entry, the tested form may be a part): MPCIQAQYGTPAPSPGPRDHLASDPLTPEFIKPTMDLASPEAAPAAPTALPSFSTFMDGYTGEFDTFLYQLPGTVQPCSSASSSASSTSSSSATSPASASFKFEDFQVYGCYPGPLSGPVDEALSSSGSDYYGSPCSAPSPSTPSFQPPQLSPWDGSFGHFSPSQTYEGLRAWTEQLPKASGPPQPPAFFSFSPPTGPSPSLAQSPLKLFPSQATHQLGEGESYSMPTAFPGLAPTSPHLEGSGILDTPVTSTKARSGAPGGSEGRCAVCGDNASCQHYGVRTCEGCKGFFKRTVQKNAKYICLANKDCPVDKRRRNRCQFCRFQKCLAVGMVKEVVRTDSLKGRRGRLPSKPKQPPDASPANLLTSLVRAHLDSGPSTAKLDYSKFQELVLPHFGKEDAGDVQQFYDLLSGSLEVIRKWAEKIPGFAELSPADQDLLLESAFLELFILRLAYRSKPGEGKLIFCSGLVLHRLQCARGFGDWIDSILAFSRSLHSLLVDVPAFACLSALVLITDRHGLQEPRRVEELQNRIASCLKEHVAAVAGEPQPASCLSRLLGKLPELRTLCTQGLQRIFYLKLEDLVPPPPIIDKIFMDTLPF

T1 sequence (P22736 351-598): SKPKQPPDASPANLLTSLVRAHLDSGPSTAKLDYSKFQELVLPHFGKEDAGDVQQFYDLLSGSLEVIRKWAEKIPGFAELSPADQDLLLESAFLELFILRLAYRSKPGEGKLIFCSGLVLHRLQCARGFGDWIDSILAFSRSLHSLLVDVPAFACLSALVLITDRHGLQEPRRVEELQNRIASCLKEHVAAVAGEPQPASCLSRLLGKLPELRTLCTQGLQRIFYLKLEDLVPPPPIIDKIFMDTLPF

Binder	Kd [1] [µM]	binding result [1]	other results
B1	8.7		
B2		binds	
B3		binds	
B4	27.2		
B5		binds	
H-CEGCKGF[S5]RRT[S5]RYYGRKKRRQRRR-NH2 (staple 8-12; cysteine pairing not given here) [ST-CY14 (stapled T-CY14)]			Kd [2]: 0.668 µM; Kd [3]: 0.0325 µM; EC50 [4]: 3.15 µM
B6	156		
CEGCKGF[S5]RRT[S5]RY-NH2 (staple 8-12; cysteine pairing not given here) [S-CY14 (stapled CY14)]	3.96		
CEGCKGFFRRTIRYRKKRRQRRR-NH2 (cysteine pairing not given here) [T-CY14 (CY14 with the TAT sequence conjugated to its C-terminus)]			Kd [2]: 4.18 µM
